Experimental data: article PMC5511251, “The A2V mutation as a new tool for hindering Aβ aggregation: A neutron and x-ray diffraction study” (Scientific Reports, 2017)

Target: T1, Aβ1-28 wild type (human)
T1 construct: amyloid-β (Aβ) residues 1-28, cut from the amyloid β precursor protein (APP); numbers count on: the Aβ peptide (position 2 of Aβ is position 673 of APP); Assembles into fibrils; also called Aβ1-28WT; WT; source: synthetic peptide (Fmoc solid-phase synthesis, purified by reverse-phase HPLC, purity >95%)
Assay: neutron diffraction + other: synchrotron X-ray fibre diffraction; peptides or their mixtures dissolved in ddH2O at 10 mg/mL, dried four days at ambient temperature on quartz in a 7 T static magnetic field, re-humidified against 100% D2O for about 14 days; small- and wide-angle patterns
Details: both partners purified

B1: Aβ1-28A2V (peptide)
peptide: DVEFRHDSGYEVHHQKLVFFAEDVGSNK
notes: amyloid-β (Aβ) residues 1-28 with the naturally occurring A-to-V substitution at position 2 of Aβ (A673V in APP); numbers count on: the Aβ peptide (position 2 of Aβ is position 673 of APP); also called mutated peptide Aβ1-28A2V; source: synthetic peptide (Fmoc solid-phase synthesis, purified by reverse-phase HPLC, purity >95%)
B1: binds.
